# Measurements from publication doi:10.1101/2023.01.23.525122 (bioRxiv, 2023).
# Positions count from the first letter of the chain named. Numbers in names are those of the source. Like-named read-outs stand apart in the source and are kept apart here.
# B1: NPM1(1–150) (domain or fragment, UniProt P06748 1-150, looked up)
# chain: MEDSMDMDMSPLRPQNYLFGCELKADKDYHFKVDNDENEHQLSLRTVSLGAGAKDELHIVEAEAMNYEGSPIKVTLATLKMSVQPTVSLGGFEITPPVVLRLKCGSGPVHISGQHLVAVEEDAESEDEEEEDVKLLSISGKRSAPGGGSK
# B2: NPM1(1–160) (domain or fragment, UniProt P06748 1-160, looked up)
# chain: MEDSMDMDMSPLRPQNYLFGCELKADKDYHFKVDNDENEHQLSLRTVSLGAGAKDELHIVEAEAMNYEGSPIKVTLATLKMSVQPTVSLGGFEITPPVVLRLKCGSGPVHISGQHLVAVEEDAESEDEEEEDVKLLSISGKRSAPGGGSKVPQKKVKLAA
# B3: NPM1(1–140) (domain or fragment, UniProt P06748 1-140, looked up)
# chain: MEDSMDMDMSPLRPQNYLFGCELKADKDYHFKVDNDENEHQLSLRTVSLGAGAKDELHIVEAEAMNYEGSPIKVTLATLKMSVQPTVSLGGFEITPPVVLRLKCGSGPVHISGQHLVAVEEDAESEDEEEEDVKLLSISG
# B4: NPM1(1–188) (domain or fragment, UniProt P06748 1-188, looked up)
# chain: MEDSMDMDMSPLRPQNYLFGCELKADKDYHFKVDNDENEHQLSLRTVSLGAGAKDELHIVEAEAMNYEGSPIKVTLATLKMSVQPTVSLGGFEITPPVVLRLKCGSGPVHISGQHLVAVEEDAESEDEEEEDVKLLSISGKRSAPGGGSKVPQKKVKLAADEDDDDDDEEDDDEDDDDDDFDDEEAEE
# B5: NPM1(1–117) (domain or fragment, UniProt P06748 1-117, looked up)
# chain: MEDSMDMDMSPLRPQNYLFGCELKADKDYHFKVDNDENEHQLSLRTVSLGAGAKDELHIVEAEAMNYEGSPIKVTLATLKMSVQPTVSLGGFEITPPVVLRLKCGSGPVHISGQHLV
# B6: NPM1(1–130) (domain or fragment, UniProt P06748 1-130, looked up)
# chain: MEDSMDMDMSPLRPQNYLFGCELKADKDYHFKVDNDENEHQLSLRTVSLGAGAKDELHIVEAEAMNYEGSPIKVTLATLKMSVQPTVSLGGFEITPPVVLRLKCGSGPVHISGQHLVAVEEDAESEDEEE
# B7: NPM1(7–117) (domain or fragment, UniProt P06748 7-117, looked up)
# chain: MDMSPLRPQNYLFGCELKADKDYHFKVDNDENEHQLSLRTVSLGAGAKDELHIVEAEAMNYEGSPIKVTLATLKMSVQPTVSLGGFEITPPVVLRLKCGSGPVHISGQHLV
# B8: NPM1(7–117)-K32A (domain or fragment, UniProt P06748 7-117, looked up)
# chain: B7 chain with K26A
# B9: NPM1(7–117)-Y67F (domain or fragment, UniProt P06748 7-117, looked up)
# chain: B7 chain with Y61F
# B10: NPM1(7–117)-Y67H (domain or fragment, UniProt P06748 7-117, looked up)
# chain: B7 chain with Y61H
# B11: NPM1-236A (natural protein, UniProt P06748 1-294, looked up)
# chain: MAASMAMDMSPLRPQNYLFGCELKADKDYHFKVDNDENEHQLSLRTVSLGAGAKDELHIVEAEAMNYEGSPIKVTLATLKMSVQPTVSLGGFEITPPVVLRLKCGSGPVHISGQHLVAVEEDAESEDEEEEDVKLLSISGKRSAPGGGSKVPQKKVKLAADEDDDDDDEEDDDEDDDDDDFDDEEAEEKAPVKKSIRDTPAKNAQKSNQNGKDSKPSSTPRSKGQESFKKQEKTPKTPKGPSSVEDIKAKMQASIEKGGSLPKVEAKFINYVKNCFRMTDQEAIQDLWQWRKSL
# B12: NPM1-234567A (natural protein, UniProt P06748 1-294, looked up)
# chain: B11 chain with S4A, M5A, M7A
# B13: NPM1-T4sD (natural protein, UniProt P06748 1-294, looked up)
# chain: B11 chain with A2E, A3D, A6D, T199D, T219D, T234D, T237D
# Tests used:
# Experiment in all cases: SDS-resistant oligomer detection by SDS-PAGE
# [1] = molecular target: the molecule itself
# [2] = molecular target: the molecule itself; remark: listed apart in the source
# [3] = molecular target: the molecule itself; remark: listed apart in the source
# [4] = molecular target: the molecule itself; remark: listed apart in the source
Protein,binding result [1],binding result [2],other results
B1,binds,,
B2,binds,,
B3,binds,,
B4,binds,,
B5,binds,,
B6,binds,,
B7,,binds,
B8,,binds,
B9,,binds,
B10,,binds,
B11,,,binding result [3]: binds
B12,,,binding result [3]: binds
B13,,,binding result [4]: binds
